According to article PMC7385124, “The molecular basis of thioalcohol production in human body odour” (Scientific Reports, 2020):

B1: CjAecD (Corynebacterium jeikeium K411) (protein)
chain: MNATTQNNNLENTQNTCPQDSAVSVPGLATLRARGTMKWTVYDEDVLPLWVAETDFDTCPAVKQAIQSGVDREYFGYERRNQSVEKALAGFLDRRFGWQIEPTWVRLVPDVVKGVATAIDELTPQGSDVIVPVPSYHPFFDVPSAVKRPKVEVEMTKVKKNGAEEWAFDYAALEAAFASTDNPAGVGAMIVCNPYNPLGRAWRPEELAKLVELAAKYNVRLISDEIHAPVVYAPHKHTPLATLSETAARVTVTVLATSKGWNTAGLHCAQMIFTNPDDRAAMAKVSPLRTGSASTLGQVAAEAAYTDGEAWLDSELEYLEGNLDLLERRLPEVLPGAKFIRPEASFLLWVDLSEVPGLADNPGQKLLEGARVAFNEGTMFGAQGAGHVRINFGTSREILNEALDRIAEFAKEHANN
notes: full length; expressed in E. coli MC1061
B2: EcMalY (Escherichia coli K-12) (protein)
chain: MFDFSKVVDRHGTWCTQWDYVADRFGTADLLPFTISDMDFATAPCIIEALNQRLMHGVFGYSRWKNDEFLAAIAHWFSTQHYTAIDSQTVVYGPSVIYMVSELIRQWSETGEGVVIHTPAYDAFYKAIEGNQRTVMPVALEKQADGWFCDMGKLEAVLAKPECKIMLLCSPQNPTGKVWTCDELEIMADLCERHGVRVISDEIHMDMVWGEQPHIPWSNVARGDWALLTSGSKSFNIPALTGAYGIIENSSSRDAYLSALKGRDGLSSPSVLALTAHIAAYQQGAPWLDALRIYLKDNLTYIADKMNAAFPELNWQIPQSTYLAWLDLRPLNIDDNALQKALIEQEKVAIMPGYTYGEEGRGFVRLNAGCPRSKLEKGVAGLINAIRAVR
notes: full length; N-terminal MGGGFA and C-terminal ENLYFQG-His10; expressed in E. coli MC1061
B3: BsPatB (Bacillus subtilis subsp. subtilis str. 168) (protein)
chain: MNFDKREERLGTQSVKWDKTGELFGVTDALPMWVADMDFRAPEAITEALKERLDHGIFGYTTPDQKTKDAVCGWMQNRHGWKVNPESITFSPGVVTALSMAVQAFTEPGDQVVVQPPVYTPFYHMVEKNGRHILHNPLLEKDGAYAIDFEDLETKLSDPSVTLFILCNPHNPSGRSWSREDLLKLGELCLEHGVTVVSDEIHSDLMLYGHKHTPFASLSDDFADISVTCAAPSKTFNIAGLQASAIIIPDRLKRAKFSASLQRNGLGGLNAFAVTAIEAAYSKGGPWLDELITYIEKNMNEAEAFLSTELPKVKMMKPDASYLIWLDFSAYGLSDAELQQRMLKKGKVILEPGTKYGPGGEGFMRLNAGCSLATLQDGLRRIKAALS
notes: full length; N-terminal MGGGFA and C-terminal ENLYFQG-His10; expressed in E. coli MC1061; homodimer, PLP on Lys234

Assays:
Experiment in all cases: purified protein, by the assay type
Parameters in all cases: DTNB thiol release, A412, continuous steady-state Michaelis-Menten kinetics of C-S lyase
Details in all cases: pH 7.8; 37.0 °C
[1] = substrate: CC(C)(CCO)SC[C@H](N)C(=O)O
Protocol: (§1) In vitro activity assays were performed using an Epoch2 (BioTek) plate reader. Reactions were measured in 96-well plate. A continuous assay, described previously[3] was used to measure 3M3SH. A 200 μL reaction contained […], variable amounts of substrate and 0.4 mM DTNB in 50 mM KPi and 200 mM NaCl, pH 7.8. […] Each reaction was incubated at 37 °C for 30 min. Release of the thiol 3M3SH was measured by reaction with DTNB to form 2-nitro-5-thiobenzoic acid (TNB) which is measured at A412 nm every minute. Background rate of DTNB decomposition was subtracted in each assay. Michaelis–Menten plots were derived from 6 to 8 substrate concentrations using Prism Version 5.01 (GraphPad) to calculate the Kcat and KM. Enzyme concentrations were assumed to be the concentration of PLP-bound enzyme with two active sites per enzyme. Velocity curves for all in vitro kinetics are shown in the supplementary information (Supplementary Information Figures S10–S12). Next, we cloned and overexpressed genes encoding a representative range of PatB-type enzymes, with two MetC proteins as controls (Fig. 2, denoted by coloured dots) and purified the proteins for biochemical analysis.

[2] = substrate: CCCC(C)(CCO)SC[C@H](N)C(=O)O
Protocol: as §1

[3] = substrate: N[C@@H](CCSC[C@H](N)C(=O)O)C(=O)O
Protocol: as §1

Protein	Km [1] [µM]	kcat [1] [s⁻¹]	kcat/Km [1] [M⁻¹ s⁻¹]	Km [2] [µM]	kcat [2] [s⁻¹]	kcat/Km [2] [M⁻¹ s⁻¹]	Km [3] [µM]	kcat [3] [s⁻¹]	kcat/Km [3] [M⁻¹ s⁻¹]
B1	800	2.65	3160	740	1.71	2300	210	1.18	5520
B2	–	–	–	17490	4.4	252	2200	7.63	3470
B3	400	0.945	2360	380	1.92	5110	660	0.55	839
